In article PMC12262051:

Molecular target: JASPer protein (1-475) (Drosophila)
Assay: MST; label-free (Monolith NT.LabelFree); JASPer constant at 0.4 uM, reconstituted nucleosomes in a 16-step dilution series (0.5 nM up to 16 uM); 20 mM HEPES pH 7.5, 50 mM NaCl, 1 mM TCEP, 0.05% Tween 20; 24 C; fitted as specific binding with Hill slope

Substance | Kd [nM]
H3K36me2 mononucleosome (147 bp) (complex) | 320
H3K36me3 mononucleosome (147 bp) (complex) | 600
unmodified mononucleosome (147 bp, H3K36me0) (complex) | 4000
